The target of assay [1] is T1, BMP9 (UniProt Q9UK05 320-429).
T1 sequence (looked up): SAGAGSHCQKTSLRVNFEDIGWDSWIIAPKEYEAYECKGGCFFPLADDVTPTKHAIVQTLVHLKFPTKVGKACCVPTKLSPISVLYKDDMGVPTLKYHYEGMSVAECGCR
Briefly: cell-based or functional assay.

For assay [2], the target named is T2, myostatin (UniProt O14793 267-375).
T2 sequence (looked up): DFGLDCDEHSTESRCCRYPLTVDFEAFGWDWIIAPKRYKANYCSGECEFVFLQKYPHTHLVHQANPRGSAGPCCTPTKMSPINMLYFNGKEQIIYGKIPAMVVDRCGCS
Briefly: cell-based or functional assay.

Assay [3] concerns the target T3, activin B (UniProt P09529 293-407).
T3 sequence (looked up): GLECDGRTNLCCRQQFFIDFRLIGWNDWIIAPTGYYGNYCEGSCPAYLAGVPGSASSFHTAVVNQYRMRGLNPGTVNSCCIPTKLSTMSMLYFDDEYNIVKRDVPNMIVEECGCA
Description: cell-based or functional assay.

For assay [4], the target named is T4, activin A (UniProt P08476 311-426).
T4 sequence (looked up): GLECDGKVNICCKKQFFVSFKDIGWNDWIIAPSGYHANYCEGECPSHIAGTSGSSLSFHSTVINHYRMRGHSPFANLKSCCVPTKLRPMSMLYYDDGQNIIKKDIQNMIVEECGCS
Description: cell-based or functional assay.

For assay [5], the target named is T2, myostatin. Briefly: Octet Red BLI, trap on AHC biosensors, 10 nM myostatin; legend: +++ KD < 10^-8M. Here is the method:
(§1) Myostatin and BMP9 binding activities of various hybrid ActRIIB ligand trap proteins were initially analyzed using Octect Red (ForteBio). Purified proteins or conditioned media were individually loaded to AHC biosensors with maximum loading. Following a baseline washing phase, the sensors were exposed to 10 nM myostatin or BMP9, respectively, for an association step followed by a dissociation step. All experiments were performed with shaking at 1,000 rpm. Binding activity was analyzed using ForteBio's software with KD being calculated using the ratio Kd/Ka.
For orientation: In BLI a coated tip is dipped into the sample, and binding shifts an interference pattern.

The target in assay [6] is T1, BMP9. Briefly: cell-based or functional assay. The source holds these as a separate data set.
In assay [7] the target is T1, BMP9. Briefly: KinExA, BMP-9-coupled Sepharose beads, trap held constant and ligand titrated. Here is the method: (§2) AG-0014 and AG-0027 were analyzed by kinetic exclusion assay (KinExA) (Sapidyne Instruments, Inc.). 20-30 μg/ml of myostatin, activin A or BMP-9 was separately coupled to NHS-Activated Sepharose 4 Fast Flow beads (GE Healthcare) using experimental procedures recommended by Sapidyne Instruments. The concentration for each hybrid ActRIIB ligand trap protein was held constant as the ligand was titrated in a 2.5-fold serial dilution. Solutions were allowed to reach equilibrium by incubation at room temperature up to 24 hours and subsequently passed through a flow cell pre-packed with ligand-coated Sepharose beads on a KinExA 3000 machine (Sapidyne Instruments). The free hybrid ActRIIB ligand trap proteins captured on the beads was detected by Alexa Fluor 647-labeled goat anti-human-Fc antibody (Jackson ImmunoResearch Laboratories, Inc.). The ligand binding affinity values (KD) were calculated using the KinExA Pro software (Sapidyne Instruments).
For orientation: Kinetic exclusion samples the free partner from a solution-phase mixture.

Assay [8] concerns the target T4, activin A. Briefly: cell-based or functional assay. The source holds these as a separate data set.
In assay [9] the target is T1, BMP9. Briefly: Octet Red BLI, trap on AHC biosensors, 10 nM BMP9; legend: +++ KD < 10^-8M. The procedure:
as §1

Assay [10] has as its target T2, myostatin. Briefly: KinExA, myostatin-coupled Sepharose beads, trap held constant and ligand titrated. The procedure:
as §2

In assay [11] the target is T4, activin A. Briefly: KinExA, activin A-coupled Sepharose beads, trap held constant and ligand titrated. The procedure: as §2
For assay [12], the target named is T1, BMP9. Briefly: Octet Red BLI, trap on AHC biosensors, 10 nM BMP9; legend: + KD 10^-4 - 10^-6M. The procedure: as §1
The target of assay [13] is T2, myostatin. Description: cell-based or functional assay. The source holds these as a separate data set.
The target in assay [14] is T1, BMP9. Briefly: Octet Red BLI, trap on AHC biosensors, 10 nM BMP9; legend: ++ KD: 10^-6 - 10^-7M. The procedure: as §1

Substitutions are numbered along the chain they refer to.

One may read the KD as the free concentration of one partner at which half of the binding sites on the other are occupied at equilibrium, for simple one-to-one binding. The term Kd denotes the concentration at which binding is half-saturated.

B1: wild-type ActRIIB-ECD-Fc fusion protein (Fc fusion)
chain: ETRECIYYNANWELERTNQSGLERCEGEQDKRLHCYASWRNSSGTIELVKKGCWLDDFNCYDRQECVATEENPQVYFCCCEGNFCNERFTHLPEAGGPEVTYEPPPTAPTGGGGSESKYGPPCPPCP
notes: also called WT ActRIIB-Fc; WT; not shown: human Fc domain
In the case of B1, the “Cell-Based IC50 (nM) Against BMP9, C2C12-BRE-luc reporter” value in assay [1] was found to be 3.4 nM. Also, the “Cell-Based IC50 (nM) Against Myostatin, C2C12-CAGA-luc reporter” value (“Cell-Based IC50 (nM) Against Myostatin” for short) in [2] amounted to 1.24 nM. For the same molecule, the “Cell-Based IC50 (nM) Against Activin B, C2C12-CAGA-luc reporter” value (“Cell-Based IC50 (nM) Against Activin B” for short) in assay [3] worked out at 1.04 nM. The “Cell-Based IC50 (nM) Against Activin A, C2C12-CAGA-luc reporter” value in assay [4] amounted to 1.27 nM. In addition, the dissociation constant KD in [5] and in assay [9] was under 10 nM throughout. Moreover, the “IC50 (read off the curve) (BMP9-induced luciferase, C2C12-BRE-luc reporter cells)” value in assay [6] was about 10 nM. For the same molecule, the Kd in assay [7] worked out at 4.25 pM; in [10], 5.06 pM; in assay [11], 1.38 pM. For the same molecule, the “IC50 (read off the curve) (activin A-induced luciferase, C2C12-CAGA-luc reporter cells)” value in [8] is about 4 nM.

B2: hybrid ActRIIB ligand trap protein AG-0006 (SEQ ID NO: 8) (Fc fusion)
chain: B1 chain with Q64T, E65D, A68E, T69K, E70K, E71D, N72S, Q74E
notes: not shown: human Fc domain
With B2, the values for the KD in assay [12] and in assay [5] were 1 to 100 µM and under 10 nM, respectively.

B3: hybrid ActRIIB ligand trap protein AG-0014 (SEQ ID NO: 16) (Fc fusion)
chain: B1 chain with E26Y, E28D, Q29K, L33R
notes: also called Hybrid Trap B; not shown: human Fc domain
For B3, the “Cell-Based IC50 (nM) Against Myostatin” value in assay [2] was 0.95 nM. Moreover, the “Cell-Based IC50 (nM) Against Activin B” value in assay [3] is 2.1 nM. The “Cell-Based IC50 (nM) Against Activin A, C2C12-CAGA-luc reporter” value in [4] turned out to be 1.15 nM. For the same molecule, in [5], the KD is under 10 nM. In addition, the Kd in assay [10] turned out to be 8.75 pM; in assay [11] it was 0.357 pM.

B4: hybrid ActRIIB ligand trap protein AG-0005 (SEQ ID NO: 7) (Fc fusion, not shown: a dimerising Fc or GST)
chain: B1 chain with Q64T, E65D, A68E, T69K, E70K, E71D, N72S
Turning to B4, the KD was 1 to 100 µM in assay [12] and under 10 nM in assay [5]. The “IC50 (read off the curve) (myostatin-induced luciferase, C2C12-CAGA-luc reporter cells)” value in assay [13] was about 1 nM. For the same molecule, the “IC50 (read off the curve) (activin A-induced luciferase, C2C12-CAGA-luc reporter cells)” value in assay [8] was about 10 nM.

B5: hybrid ActRIIB ligand trap protein AG-0007 (SEQ ID NO: 9) (Fc fusion)
chain: B1 chain with A68E, T69K, E70K, E71D, N72S, Q74E
notes: not shown: human Fc domain
Turning to B5, the equilibrium dissociation constant (KD) in assay [12] was 1 to 100 µM; in assay [5] it was under 10 nM.

B6: hybrid ActRIIB ligand trap protein AG-0027 (SEQ ID NO: 29) (Fc fusion)
chain: B1 chain with E28D, F58I, E70K
notes: also called Hybrid Trap A; Hybrid Trap; not shown: human Fc domain
Turning to B6, the “Cell-Based IC50 (nM) Against Myostatin” value in assay [2] stood at 1.14 nM. Further, the “Cell-Based IC50 (nM) Against Activin B” value in assay [3] was 1.3 nM. Further, the “Cell-Based IC50 (nM) Against Activin A, C2C12-CAGA-luc reporter” value in assay [4] was 1.62 nM. The KD in assay [5] is under 10 nM. Besides, the figures for the equilibrium dissociation constant (Kd) in assay [10] and in assay [11] were 7.87 pM and 1.09 pM, respectively.

B7: hybrid ActRIIB ligand trap protein AG-0003 (SEQ ID NO: 5) (Fc fusion, not shown: a dimerising Fc or GST)
chain: B1 chain with F58I, Q64T, E65D, A68E, T69K, E70K, E71D, N72S, Q74E
Take B7: the KD is under 10 nM in assay [5] and 100 to 1000 nM in assay [14]. Moreover, in assay [13], the “IC50 (read off the curve) (myostatin-induced luciferase, C2C12-CAGA-luc reporter cells)” value was about 0.4 nM. Also, the “IC50 (read off the curve) (activin A-induced luciferase, C2C12-CAGA-luc reporter cells)” value in assay [8] is about 10 nM.

B8: hybrid ActRIIB ligand trap protein AG-0008 (SEQ ID NO: 10) (Fc fusion)
chain: B1 chain with A68E, T69K, E70K, E71D, N72S
notes: not shown: human Fc domain
For the molecule B8, the results for the KD in [5] and in assay [14] were under 10 nM and 100 to 1000 nM, respectively.

The values are drawn from patent publication US20220332791A1 (ALIVEGEN, published 2022).
